# Laboratory results: patent publication US20030049605A1 (published 2003)
# Target: T1, mCAT1, ecotropic retroviral receptor (cationic amino acid transporter), expressed on human 911 cells … (mouse, UniProt Q09143 1-622)
# T1 construct: whole, on cells; also called mATRC1; 911-mCAT1-3H7
# Assay: phage binding to cells, elution with triethylamine, titering (cfu)
# T1 sequence (Q09143 whole entry): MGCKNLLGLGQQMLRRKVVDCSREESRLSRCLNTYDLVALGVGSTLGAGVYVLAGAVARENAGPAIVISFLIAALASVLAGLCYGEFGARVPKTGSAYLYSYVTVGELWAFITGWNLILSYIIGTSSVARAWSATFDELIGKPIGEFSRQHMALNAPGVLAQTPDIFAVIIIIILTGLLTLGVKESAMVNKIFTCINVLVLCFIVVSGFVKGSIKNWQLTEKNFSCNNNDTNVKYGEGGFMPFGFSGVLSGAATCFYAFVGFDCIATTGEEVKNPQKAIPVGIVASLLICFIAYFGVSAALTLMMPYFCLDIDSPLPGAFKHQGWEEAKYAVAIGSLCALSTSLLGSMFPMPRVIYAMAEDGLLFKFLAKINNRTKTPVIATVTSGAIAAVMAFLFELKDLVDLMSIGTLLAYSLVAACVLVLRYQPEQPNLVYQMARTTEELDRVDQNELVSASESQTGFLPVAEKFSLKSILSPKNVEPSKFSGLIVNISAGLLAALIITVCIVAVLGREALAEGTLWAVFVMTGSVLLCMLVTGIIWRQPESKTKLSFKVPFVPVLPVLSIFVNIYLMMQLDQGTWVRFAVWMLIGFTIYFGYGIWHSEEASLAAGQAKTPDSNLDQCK
row,Binder,times more eluted phage from 911-mCAT1 cell line as compared to 911-pcDNA3 cell line [times]
1,"gpIII/env3 phage (ecotropic Moloney MuLV envelope residues 34-266 displayed as a fusion with M13 gpIII) (other, range 34-266; Tested as whole phage particles. pelB leader left out; also called construct 3) ASPGSSPHQVYNITWEVTNGDRETVWATSGNHPLWTWWPDLTPDLCMLAHHGPSYWGLEYQSPFSSPPGPPCCSGGSSPGCSRDCEEPLTSLTPRCNTAWNRLKLDQTTHKSNEGFYVCPGPHRPRESKSCGGPDSFYCAYWGCETTGRAYWKPSSSWDFITVNNNLTSDQAVQVCKDNKWCNPLVIRFTDAGRRVTSWTTGHYWGLRLYVSGQDPGLTFGIRLRYQNLGPRVTSGGGGS",26
2,"gpIII/env1 phage (ecotropic Moloney MuLV envelope residues 34-468 displayed as a fusion with M13 gpIII) (other, Tested as whole phage particles displaying the fusion; also called construct 1) ASPGSSPHQVYNITWEVTNGDRETVWATSGNHPLWTWWPDLTPDLCMLAHHGPSYWGLEYQSPFSSPPGPPCCSGGSSPGCSRDCEEPLTSLTPRCNTAWNRLKLDQTTHKSNEGFYVCPGPHRPRESKSCGGPDSFYCAYWGCETTGRAYWKPSSSWDFITVNNNLTSDQAVQVCKDNKWCNPLVIRFTDAGRRVTSWTTGHYWGLRLYVSGQDPGLTFGIRLRYQNLGPRVPIGPNPVLADQQPLSKPKPVKSPSVTKPPSGTPLSPTQLPPAGTENRLLNLVDGAYQALNLTSPDKTQECWLCLVAGPPYYEGVAVLGTYSNHTSAPANCSVASQHKLTLSEVTGQGLCIGAVPKTHQALCNTTQTSSRGSYYLVAPTGTMWACSTGLTPCISTTILNLTTDYCVLVELWPRVTYHSPSYVYGLFERSNRHKTSGGGGSPFVCEYQGQSSDLPQPPVNAGGGSGGGSGGGSEGGGSEGGGSEGGGSEGGGSGGGSGSGDFDYEKMANANKGAMTENADENALQSDAKGKLDSVATDYGAAIDGFIGDVSGLANGNGATGDFAGSNSQMAQVGDGDNSPLMNNFRQYLPSLPQSVECRPFVFSAGKPYEFSIDCDKINLFRGVFAFLLYVATFMYVFSTFANILRNKES",11
3,"gpIII/env2 phage (ecotropic Moloney MuLV envelope residues 34-308 displayed as a fusion with M13 gpIII) (other, range 34-308; Tested as whole phage particles. pelB leader left out; also called construct 2) ASPGSSPHQVYNITWEVTNGDRETVWATSGNHPLWTWWPDLTPDLCMLAHHGPSYWGLEYQSPFSSPPGPPCCSGGSSPGCSRDCEEPLTSLTPRCNTAWNRLKLDQTTHKSNEGFYVCPGPHRPRESKSCGGPDSFYCAYWGCETTGRAYWKPSSSWDFITVNNNLTSDQAVQVCKDNKWCNPLVIRFTDAGRRVTSWTTGHYWGLRLYVSGQDPGLTFGIRLRYQNLGPRVPIGPNPVLADQQPLSKPKPVKSPSVTKPPSGTPLSPTQLPPATSGGGGS",97
